The supplement of paper PMC10724198
± gives the standard deviation of the averaged measurements.

Assays:
[1] = tested on: Saccharomyces cerevisiae; test: protein stability index of tFT-peptide fusion (C-terminal peptide) (PSI (0-1 scale)); higher = more stable (slower turnover)
Description: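 MPS profiling in S. cerevisiae of the tFT-X12 degron library: putative degron peptides plus stable controls, 12 aa, fused to the C-terminus of a sfGFP-mCherry timer. Cells are FACS-sorted into 8 mCherry/sfGFP bins and deep-sequenced. PSI runs from 0 (unstable) to 1 (stable). Backgrounds are wild type, das1Δ and doa10Δ at 30 °C, and wild type, das1Δ, cdc34-1 and cdc53-1 at 37 °C; 2-3 technical replicates each.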

[2] = tested on: Saccharomyces cerevisiae; test: as above; settings: genetic background: wild type; temperature: 30 C
[3] = genetic background: cdc34-1, temperature: 37 C
[4] = genetic background: cdc53-1, temperature: 37 C
[5] = genetic background: das1 deletion, temperature: 30 C
[6] = genetic background: das1 deletion, temperature: 37 C
[7] = genetic background: doa10 deletion, temperature: 30 C
[8] = genetic background: wild type, temperature: 30 C
[9] = genetic background: wild type, temperature: 37 C
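Also: PSI is a weighted mean of sequencing reads over stability bins, variants kept only with over 10 reads, mCherry proximal and sfGFP distal, peptide attached via GGGS linker.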

Sequence	protein stability index [1, 3]	protein stability index [1, 4]	protein stability index [1, 5]	protein stability index [1, 6]	protein stability index [1, 7]	protein stability index [1, 8]	protein stability index [1, 9]	protein stability index [2]
VISGFVLVFRVR	0.509 ± 0.0038	0.543 ± 0.029	0.356 ± 0.022	0.591 ± 0.066	0.379 ± 0.026	0.344 ± 0.032	0.566 ± 0.035	0.441 ± 0.028
VKGYISLLLVLI	0.269 ± 0.01	0.332 ± 0.012	0.264 ± 0.04	0.419 ± 0.0071	0.289 ± 0.0043	0.259 ± 0.014	0.365 ± 0.011	0.345 ± 0.013
VLAARVVLLRCR	0.207 ± 0.0095	0.216 ± 0.033	0.199 ± 0.031	0.335 ± 0.0052	0.179 ± 0.0064	0.195 ± 0.028	0.3113 ± 0.001	0.2612 ± 0.0024
VLCFTSAYHRLV	0.662 ± 0.017	0.739 ± 0.015	0.631 ± 0.0098	0.724 ± 0.014	0.206 ± 0.014	0.262 ± 0.019	0.5171 ± 0.0028	0.425 ± 0.049
VLFLLLFVSRVA	0.2684 ± 0.0016	0.398 ± 0.017	0.259 ± 0.035	0.453 ± 0.016	0.203 ± 0.012	0.224 ± 0.03	0.381 ± 0.042	0.3312 ± 0.0014
VLLCFFLGIVGF	0.36 ± 0.045	0.487 ± 0.035	0.322 ± 0.024	0.488 ± 0.011	0.296 ± 0.0087	0.299 ± 0.012	0.489 ± 0.027	0.396 ± 0.045
VLLSFVFCGWVR	0.458 ± 0.014	0.4842 ± 0.0018	0.345 ± 0.027	0.516 ± 0.0096	0.326 ± 0.013	0.349 ± 0.025	0.4963 ± 0.0042	0.442 ± 0.019
VLLVSVFVATLL	0.124 ± 0.013	0.256 ± 0.0095	0.143 ± 0.033	0.334 ± 0.0086	0.113 ± 0.0087	0.135 ± 0.022	0.284 ± 0.0077	0.21 ± 0.012
VLVVASLRFSFF	0.207 ± 0.054	0.34 ± 0.036	0.197 ± 0.029	0.40083 ± 0.00033	0.173 ± 0.019	0.2 ± 0.014	0.38 ± 0.0063	0.249 ± 0.017
VLVVRVLLSDLV	0.178 ± 0.02	0.255 ± 0.021	0.18 ± 0.028	0.36571 ± 8.9e-05	0.157 ± 0.012	0.17 ± 0.012	0.338 ± 0.01	0.262 ± 0.0089
VLVVWLGICFGY	0.166 ± 0.014	0.201 ± 0.046	0.191 ± 0.033	0.37 ± 0.0092	0.187 ± 0.0077	0.201 ± 0.016	0.299 ± 0.0044	0.259 ± 0.011
VMYRGVRISWFL	0.576 ± 0.036	0.582 ± 0.008	0.424 ± 0.021	0.504 ± 0.014	0.343 ± 0.04	0.354 ± 0.036	0.449 ± 0.0086	0.38459 ± 6.1e-05
VNILFCLFFLLV	0.449 ± 0.02	0.554 ± 0.027	0.419 ± 0.021	0.564 ± 0.023	0.392 ± 0.025	0.36 ± 0.0062	0.4772 ± 0.0041	0.412 ± 0.013
VPQMLVSVCLSN	0.301 ± 0.014	0.376 ± 0.045	0.287 ± 0.032	0.423 ± 0.021	0.219 ± 0.014	0.26 ± 0.029	0.392 ± 0.033	0.348 ± 0.011
VPQQWFAETGRC	0.72 ± 0.031	0.763 ± 0.036	0.668 ± 0.026	0.7455 ± 0.0051	0.657 ± 0.038	0.662 ± 0.028	0.742 ± 0.014	0.745 ± 0.019
VRFPVFFIILFL	0.0864 ± 0.024	0.0743 ± 0.0032	0.15 ± 0.029	0.235 ± 0.017	0.241 ± 0.014	0.142 ± 0.029	0.202 ± 0.0029	0.239 ± 0.018
VRGSPNVMWKSQ	0.675 ± 0.028	0.778 ± 0.01	0.647 ± 0.028	0.733 ± 0.028	0.194 ± 0.0042	0.238 ± 0.022	0.508 ± 0.033	0.398 ± 0.035
